Consider three sequences from the supplement of paper PMC5998384.

The subject of series [1] is HeLa Kyoto. In words: solubility in G1/S (NP-40 vs SDS abundance) (log2 ratio); higher = more soluble. To be noted: cell cycle stage: G1/S.
For series [2], the system named is HeLa Kyoto. Nature of the series: melting temperature (median over replicates), in situ; higher = more thermally stable.
Series [3] has as its system HeLa Kyoto. Nature of the series: solubility change mitosis vs G1/S (difference of NP-40 vs SDS log2 ratios) (log2 ratio difference); higher = more soluble in mitosis.
Series [4] relates to HeLa Kyoto. In words: thermal stability score vs G1/S (z-score of summed log2 fold changes over temperatures); higher = more thermally stable than in G1/S.
[5] abbreviates: cell cycle stage: early G1 (4.5 h after nocodazole release).
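Throughout, for melting temperature (median over replicates), in situ: HeLa Kyoto cells synchronized by double thymidine or nocodazole block, proteins quantified by TMT10plex mass spectrometry, three independent biological replicates.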
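Throughout, for solubility change mitosis vs G1/S (difference of NP-40 vs SDS log2 ratios): synchronized HeLa Kyoto cells (double thymidine block for G1/S, nocodazole release for mitosis), protein amounts in NP-40 versus SDS lysates quantified by mass spectrometry, three biological replicates.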
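Throughout, for solubility in G1/S (NP-40 vs SDS abundance): HeLa Kyoto cells arrested at G1/S by double thymidine block, proteins quantified by TMT10plex mass spectrometry in mild NP-40 versus SDS extracts, three biological replicates.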
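Throughout, for thermal stability score vs G1/S (z-score of summed log2 fold changes over temperatures): synchronized HeLa Kyoto cells, proteins quantified by TMT10plex mass spectrometry, three biological replicates, mitosis taken 0.5 h after nocodazole release, G1/S directly after double thymidine block.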

For the sequence “MMTSVGTNRARGNWEQPQNQNQTQHKQRPQATAEQIRLAQMISDHNDADFEEKVKQLIDITGKNQDECVIALHDCNGDVNRAINVLLEGNPDTHSWEMVGKKKGVSGQKDGGQTESNEEGKENRDRDRDYSRRRGGPPRRGRGASRGREFRGQENGLDGTKSGGPSGRGTERGRRGRGRGRGGSGRRGGRFSAQGMGTFNPADYAEPANTDDNYGNSSGNTWNNTGHFEPDDGTSAWRTATEEWGTEDWNEDLSETKIFTASNVSSVPLPAENVTITAGQRIDLAVLLGKTPSTMENDSSNLDPSQAPSLAQPLVFSNSKQTAISQPASGNTFSHHSMVSMLGKGFGDVGEAKGGSTTGSQFLEQFKTAQALAQLAAQHSQSGSTTTSSWDMGSTTQSPSLVQYDLKNPSDSAVHSPFTKRQAFTPSSTMMEVFLQEKSPAVATSTAAPPPPSSPLPSKSTSAPQMSPGSSDNQSSSPQPAQQKLKQQKKKASLTSKIPALAVEMPGSADISGLNLQFGALQFGSEPVLSDYESTPTTSASSSQAPSSLYTSTASESSSTISSNQSQESGYQSGPIQSTTYTSQNNAQGPLYEQRSTQTRRYPSSISSSPQKDLTQAKNGFSSVQATQLQTTQSVEGATGSAVKSDSPSTSSIPPLNETVSAASLLTTTNQHSSSLGGLSHSEEIPNTTTTQHSSTLSTQQNTLSSSTSSGRTSTSTLLHTSVESEANLHSSSSTFSTTSSTVSAPPPVVSVSSSLNSGSSLGLSLGSNSTVTASTRSSVATTSGKAPPNLPPGVPPLLPNPYIMAPGLLHAYPPQVYGYDDLQMLQTRFPLDYYSIPFPTPTTPLTGRDGSLASNPYSGDLTKFGRGDASSPAPATTLAQPQQNQTQTHHTTQQTFLNPALPPGYSYTSLPYYTGVPGLPSTFQYGPAVFPVAPTSSKQHGVNVSVNASATPFQQPSGYGSHGYNTGVSVTSSNTGVPDISGSVYSKTQQSFEKQGFHSGTPAASFNLPSALGSGGPINPATAAAYPPAPFMHILTPHQQPHSQILHHHLQQDGQTGSGQRSQTSSIPQKPQTNKSAYNSYSWGAN [UBAP2L]”, the “solubility in G1/S (log2)” value in series [1] is -0.0783. Moreover, the values for the melting temperature in series [2] (cell cycle stage: G1/S) and in series [2] (cell cycle stage: mitosis) were 55.5 °C and 54.2 °C, respectively. For the same sequence, the “solubility change mitosis (log2)” value in series [3] came out at 0.0243. Further, the results for the thermal stability score in series [4] (setting [5]) and in series [4] (cell cycle stage: mitosis) were -3.92 and -3.52, respectively.

On to “MMTSVSSDHCRGAREKPQISAAQSTQPQKQVVQATAEQMRLAQVIFDKNDSDFEAKVKQLMEVTGKNQDECIVALHDCNGDVNKAINILLEGNSDTTSWETVGCKKKNFAKENSENKENREKKSEKESSRGRGNNNRKGRGGNRGREFRGEENGIDCNQVDKPSDRGKRARGRGFGRGRGRGAGRFSTQGMGTFNPADYSDSTSTDVCGTKLVVWEAAQNGADEGTELASNTHNIAQDLSNKSSYGLKGAWKNSVEEWTTEDWTEDLSETKVFTASSAPAENHILPGQSIDLVALLQKPVPHSQASEANSFETSQQQGFGQALVFTNSQHNNQMAPGTGSSTAVNSCSPQSLSSVLGSGFGELAPPKMANITSSQILDQLKAPSLGQFTTTPSTQQNSTSHPTTTTSWDLKPPTSQSSVLSHLDFKSQPEPSPVLSQLSQRQQHQSQAVTVPPPGLESFPSQAKLRESTPGDSPSTVNKLLQLPSTTIENISVSVHQPQPKHIKLAKRRIPPASKIPASAVEMPGSADVTGLNVQFGALEFGSEPSLSEFGSAPSSENSNQIPISLYSKSLSEPLNTSLSMTSAVQNSTYTTSVITSCSLTSSSLNSASPVAMSSSYDQSSVHNRIPYQSPVSSSESAPGTIMNGHGGGRSQQTLDTPKTTGPPSALPSVSSLPSTTSCTALLPSTSQHTGDLTSSPLSQLSSSLSSHQSSLSAHAALSSSTSHTHASVESASSHQSSATFSTAATSVSSSASSGASLSSSMNTANSLCLGGTPASASSSSSRAAPLVTSGKAPPNLPQGVPPLLHNQYLVGPGGLLPAYPIYGYDELQMLQSRLPVDYYGIPFAAPTALASRDGSLANNPYPGDVTKFGRGDSASPAPATTPAQPQQSQSQTHHTAQQPFVNPALPPGYSYTGLPYYTGMPSAFQYGPTMFVPPASAKQHGVNLSTPTPPFQQASGYGQHGYSTGYDDLTQGTAAGDYSKGGYAGSSQAPNKSAGSGPGKGVSVSSSTTGLPDMTGSVYNKTQTFDKQGFHAGTPPPFSLPSVLGSTGPLASGAAPGYAPPPFLHILPAHQQPHSQLLHHHLPQDAQSGSGQRSQPSSLQPKSQASKPAYGNSPYWTN [UBAP2]”, for which, in series [1], the “solubility in G1/S (log2)” value worked out at 0.0134. In addition, the melting temperature in series [2] (cell cycle stage: G1/S) is 57.3 °C; in series [2] (cell cycle stage: mitosis), 56.8 °C. Besides, the “solubility change mitosis (log2)” value in series [3] was -0.0536. Moreover, the thermal stability score in series [4] (setting [5]) is -3.11; in series [4] (cell cycle stage: mitosis), -3.84.

Take “MNAAASSYPMASLYVGDLHSDVTEAMLYEKFSPAGPVLSIRVCRDMITRRSLGYAYVNFQQPADAERALDTMNFDVIKGKPIRIMWSQRDPSLRKSGVGNVFIKNLDKSIDNKALYDTFSAFGNILSCKVVCDENGSKGYAFVHFETQEAADKAIEKMNGMLLNDRKVFVGRFKSRKEREAELGAKAKEFTNVYIKNFGEEVDDESLKELFSQFGKTLSVKVMRDPNGKSKGFGFVSYEKHEDANKAVEEMNGKEISGKIIFVGRAQKKVERQAELKRKFEQLKQERISRYQGVNLYIKNLDDTIDDEKLRKEFSPFGSITSAKVMLEDGRSKGFGFVCFSSPEEATKAVTEMNGRIVGSKPLYVALAQRKEERKAHLTNQYMQRVAGMRALPANAILNQFQPAAGGYFVPAVPQAQGRPPYYTPNQLAQMRPNPRWQQGGRPQGFQGMPSAIRQSGPRPTLRHLAPTGSECPDRLAMDFGGAGAAQQGLTDSCQSGGVPTAVQNLAPRAAVAAAAPRAVAPYKYASSVRSPHPAIQPLQAPQPAVHVQGQEPLTASMLAAAPPQEQKQMLGERLFPLIQTMHSNLAGKITGMLLEIDNSELLHMLESPESLRSKVDEAVAVLQAHHAKKEAAQKVGAVAAATS [PABPC4]”: the “solubility in G1/S (log2)” value in series [1] is 0.0374. Further, the melting temperature worked out at 50.3 °C in series [2] (cell cycle stage: G1/S) and 49.6 °C in series [2] (cell cycle stage: mitosis). Besides, the “solubility change mitosis (log2)” value in series [3] was 0.0456. The thermal stability score in series [4] (setting [5]) was -1.92; in series [4] (cell cycle stage: mitosis), -1.27.
